From the supplement of paper PMC9732359
± gives the uncertainty stated by the source.

Experiment: protein stability index of a GFP-peptide fusion (yeast GPS) (PSI 1-4); higher = more stable; sorted into four equal gates, so the index is relative within each strain
How it was run: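 Plasmids isolated from each sorting gate were PCR-amplified and Illumina-sequenced, and barcodes assigned the reads to strains. The gates, four of equal size, were set by GFP/Cherry fluorescence ratio on mid-log cultures in leucine-free medium. These cultures were yeast carrying a pooled library of tiled 17-residue yeast protein peptides fused downstream of GFP on a plasmid that also expresses Cherry. The protein stability index is the sum of every gate's read frequency times its gate number.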

Row | Sequence | protein stability index (doa10∆) | protein stability index (pdr5∆) | protein stability index (san1∆) | protein stability index (ubr1∆)
1 | NGNKDSSFNFNKNLPFV [SWI1] | 3.21 ± 0.058 | 3.38 ± 0.068 | 3.28 ± 0.051 | 3.31 ± 0.043
2 | LKKANIIYHTTFSWLNA [YLR018C/POM34] | 2.46 ± 0.043 | 2.45 ± 0.044 | 2.41 ± 0.043 | 2.54 ± 0.036
3 | ANLLQINVDNDPFFAQS [YML103C/NUP188] | 3.04 ± 0.059 | 3.14 ± 0.06 | 2.88 ± 0.055 | 2.93 ± 0.094
4 | FNYVQECPAIPIFNYIF [YJL039C/NUP192] | 1.9 ± 0.072 | 1.75 ± 0.056 | 1.88 ± 0.082 | 1.85 ± 0.042
5 | MNIIQQQQQQNTNNNDT [GAL11] | 2.43 ± 0.042 | 2.63 ± 0.047 | 2.46 ± 0.044 | 2.52 ± 0.04
6 | DRQIINEKMQLLKDIFA [SIR4] | 2.25 ± 0.042 | 2.64 ± 0.054 | 2.31 ± 0.058 | 1.92 ± 0.047
7 | VDVLVISSHSHPVSLIS [RRP42] | 1.5 ± 0.046 | 1.53 ± 0.048 | 1.57 ± 0.062 | 1.67 ± 0.03
8 | AIKDKLEQDLHFENAKV [YIL149C/MLP2] | 3.09 ± 0.066 | 3.29 ± 0.075 | 3.35 ± 0.069 | 3.16 ± 0.079
9 | MCQNPMQKPVPFVPVLD [FAS1] | 1.47 ± 0.039 | 1.54 ± 0.034 | 1.29 ± 0.061 | 1.52 ± 0.031
10 | VILGADSRTTTGAYIAN [PRE3] | 2.72 ± 0.13 | 3.41 ± 0.11 | 3.12 ± 0.16 | 2.81 ± 0.13
11 | KSMGRKCFDDIEPHIFD [YCG1] | 3.15 ± 0.075 | 3.07 ± 0.084 | 3.29 ± 0.046 | 3.32 ± 0.048
12 | HTLALEFVNGGKVVKNV [RRP46] | 2.2 ± 0.18 | 2.22 ± 0.074 | 2.19 ± 0.29 | 2.14 ± 0.13
13 | MQHNPLAGKRGPKSGST [PGD1] | 2.94 ± 0.064 | 2.74 ± 0.057 | 2.85 ± 0.063 | 2.96 ± 0.048
14 | CSDFVKILNLEKPLILA [NUT1] | 2.01 ± 0.097 | 1.39 ± 0.064 | 1.34 ± 0.17 | 1.08 ± 0.071
15 | KDDMKVDDAIELALKTL [PRE9] | 2.76 ± 0.25 | 3.52 ± 0.1 | 3.18 ± 0.077 | 3.65 ± 0.09
16 | MSSDASTYRLEDVLSSF [SSN2] | 2.21 ± 0.073 | 2.38 ± 0.069 | 1.9 ± 0.1 | 2.56 ± 0.091
17 | KRTIRIKTQQHILPEVP [TAF14] | 1.92 ± 0.059 | 2.02 ± 0.049 | 2.2 ± 0.066 | 2.07 ± 0.063
18 | DTVDRLIIKYQKYWESM [GAL11] | 2.73 ± 0.053 | 2.83 ± 0.065 | 2.62 ± 0.053 | 3.02 ± 0.062
19 | LPKVRYNVEKVKRLMDF [NSL1] | 1.8 ± 0.07 | 2.38 ± 0.065 | 1.96 ± 0.13 | 2.15 ± 0.081
20 | LVDNLNAEVVAGNIKCR [BRR2] | 1.79 ± 0.087 | 1.67 ± 0.07 | 1.72 ± 0.14 | 1.45 ± 0.075
21 | QINNVHLIPNEIKGASE [RPN4] | 2.84 ± 0.064 | 2.75 ± 0.059 | 2.42 ± 0.06 | 2.76 ± 0.052
22 | FNVVDVGVDQLSIELEG [YJL039C/NUP192] | 3.49 ± 0.076 | 3.34 ± 0.058 | 3.29 ± 0.038 | 3.37 ± 0.049
23 | IVVVIEIITSLSMRFQR [SRB8] | 2.5 ± 0.12 | 2.71 ± 0.092 | 2.18 ± 0.084 | 2.06 ± 0.087
24 | LDSLMKTTRLLLIIRSL [YJL039C/NUP192] | 1.63 ± 0.044 | 1.39 ± 0.039 | 1.32 ± 0.077 | 1.27 ± 0.04
25 | RLPVSEDTNTKPLFDFG [YOR098C/NUP1] | 2.76 ± 0.13 | 2.76 ± 0.12 | 1.93 ± 0.23 | 3.08 ± 0.13
26 | VREYEQPDANKKKRSRT [ISW2] | 3.13 ± 0.14 | 3.31 ± 0.12 | 3.25 ± 0.13 | 3.29 ± 0.11
